For orientation: Kd means the concentration at which binding is half-saturated. Low values mean a tighter complex, high ones a looser complex.

In experiment [1] the target is Sso7d-NanoLuc large fragment fusion.
The target is the same in experiment [2]. This is another data set of the same source.

Read-outs that look alike come from different tables or passages of the source.

“NS2-Stoffel fusion (NanoLuc small fragment NS2)” came in with an equilibrium dissociation constant (Kd) in experiment [1] of 190 µM. As for NS3, the Kd in experiment [2] is 0.18 µM.

The values above are taken from PMC7736784.
